The values that follow come from patent US20020123091.

Data set [1] deals with single-chain hepatocyte growth factor (scHGF).
Another data set has as its target T1, PRO256 polypeptide.
T1 chain: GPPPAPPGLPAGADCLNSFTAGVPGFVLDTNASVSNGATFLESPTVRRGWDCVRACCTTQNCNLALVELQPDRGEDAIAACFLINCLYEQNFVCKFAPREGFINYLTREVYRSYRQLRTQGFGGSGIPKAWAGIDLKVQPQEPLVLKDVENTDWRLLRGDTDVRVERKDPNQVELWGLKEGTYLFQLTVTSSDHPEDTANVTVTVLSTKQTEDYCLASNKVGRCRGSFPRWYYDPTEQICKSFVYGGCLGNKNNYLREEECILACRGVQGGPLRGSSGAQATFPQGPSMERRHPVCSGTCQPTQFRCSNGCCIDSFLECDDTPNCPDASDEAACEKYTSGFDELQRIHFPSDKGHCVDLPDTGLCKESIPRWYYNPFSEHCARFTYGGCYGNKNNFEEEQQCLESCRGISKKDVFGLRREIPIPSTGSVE

Sequence of single-chain hepatocyte growth factor (scHGF) (P14210 whole entry): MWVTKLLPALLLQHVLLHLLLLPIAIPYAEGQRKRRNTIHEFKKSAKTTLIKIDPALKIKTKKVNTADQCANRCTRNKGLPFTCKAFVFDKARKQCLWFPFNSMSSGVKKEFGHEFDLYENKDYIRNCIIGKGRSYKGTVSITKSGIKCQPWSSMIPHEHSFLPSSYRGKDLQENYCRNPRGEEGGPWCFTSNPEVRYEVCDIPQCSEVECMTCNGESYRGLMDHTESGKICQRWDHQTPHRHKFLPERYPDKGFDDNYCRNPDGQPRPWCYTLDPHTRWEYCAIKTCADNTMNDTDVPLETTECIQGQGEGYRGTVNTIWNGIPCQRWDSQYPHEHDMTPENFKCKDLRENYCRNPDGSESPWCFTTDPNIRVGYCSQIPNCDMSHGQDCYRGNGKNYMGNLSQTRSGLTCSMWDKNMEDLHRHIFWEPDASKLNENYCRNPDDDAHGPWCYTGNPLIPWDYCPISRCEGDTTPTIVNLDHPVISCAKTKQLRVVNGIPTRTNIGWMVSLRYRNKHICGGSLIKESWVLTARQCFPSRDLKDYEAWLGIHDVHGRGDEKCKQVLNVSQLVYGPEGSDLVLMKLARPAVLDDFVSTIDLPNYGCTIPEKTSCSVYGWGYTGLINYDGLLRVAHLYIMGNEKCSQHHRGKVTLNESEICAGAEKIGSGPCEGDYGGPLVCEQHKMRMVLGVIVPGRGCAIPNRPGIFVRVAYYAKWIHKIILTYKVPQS

B1: human factor XIIa (Haematologic Technologies) (protein)
chain: IPPWEAPKEHKYKAEEHTVVLTVTGEPCHFPFQYHRQLYHKCTHKGRPGPQPWCATTPNFDQDQRWGYCLEPKKVKDHCSKHSPCQKGGTCVNMPSGPHCLCPQHLTGNHCQKEKCFEPQLLRFFHKNEIWYRTEQAAVARCQCKGPDAHCQRLASQACRTNPCLHGGRCLEVEGHRLCHCPVGYTGAFCDVDTKASCYDGRGLSYRGLARTTLSGAPCQPWASEATYRNVTAEQARNWGLGGHAFCRNPDNDIRPWCFVLNRDRLSWEYCDLAQCQTPTQAAPPTPVSPRLHVPLMPAQPAPPKPQPTTRTPPQSQTPGALPAKREQPPSLTRNGPLSCGQRLRKSLSSMTRVVGGLVALRGAHPYIAALYWGHSFCAGSLIAPCWVLTAAHCLQDRPAPEDLTVVLGQERRNHSCEPCQTLAVRSYRLHEAFSPVSYQHDLALLRLQEDADGSCALLSPYVQPVCLPSGAARPSETTLCQVAGWGHQFEGAEEYASFLQEAQVPFLSLERCSAPDVHGSSILPGMLCAGFLEGGTDACQGDSGGPLVCEDQAAERRLTLQGIISWGSGCGDRNKPGVYTDVAYYLAWIREHTVS
Take B1: in data set [1], the “conversion of ^125I-scHGF into its two chain form, factor XIIa 40 nM, SDS-PAGE/autoradiography” value is given as “factor XIIa converts ^125I-scHGF into its two chain form”; the “conversion of scHGF into its two chain form, factor XIIa 20 nM, SDS-PAGE with autoradiography or Coomassie staining” value was “Both labelled and unlabelled HGF were converted identically, suggesting that the iodination of scHGF did not impair processing by its activators, such as factor XIIa”. Also, in the data set with PRO256 polypeptide, the “factor XIIa (40 nM) conversion of ^125I-scHGF into its two chain form, SDS-PAGE/autoradiography, with or without PRO256” value is listed as “In the presence or absence of PRO256, factor XIIa converts ^125I-scHGF into its two chain form, thereby indicating lack of inhibition by PRO256”.

B2: hepatocyte growth factor activator (as present in human serum) (protein)
chain: VQLSPDLLATLPEPASPGRQACGRRHKKRTFLRPRIIGGSSSLPGSHPWLAAIYIGDSFCAGSLVHTCWVVSAAHCFSHSPPRDSVSVVLGQHFFNRTTDVTQTFGIEKYIPYTLYSVFNPSDHDLVLIRLKKKGDRCATRSQFVQPICLPEPGSTFPAGHKCQIAGWGHLDENVSGYSSSLREALVPLVADHKCSSPEVYGADISPNMLCAGYFDCKSDACQGDSGGPLACEKNGVAYLYGIISWGDGCGRLHKPGVYTRVANYVDWINDRIRPPRRLVAPS
For the protein B2, the “human serum (10%)-mediated conversion of ^125I-scHGF into its two chain form, SDS-PAGE/autoradiography, PRO256 at 1 µM” value with PRO256 polypeptide is “In the presence of the inhibitor PRO256 (at time intervals 0, 0.5 hr, 1 hr, 2 hr, and 4 hr), ^125I-sc-HGF is not converted two chain form as indicated by the top heavy band on the gel”.
